Experimental data taken from article PMC3961392.

Columns and labels:
A3G = A3G (Homo sapiens?) (UniProt Q9HC16); test: fluorescence anisotropy; conditions: RT buffer: 50 mM Tris pH 7.4, 40 mM KCl, 10 mM MgCl2, 1 mM DTT; 10 nM F-labeled DNA; 21 C
A3G NPM ins194_195NPM = A3G NPM ins194_195NPM (UniProt Q9HC16); test: fluorescence anisotropy; conditions: RT buffer: 50 mM Tris pH 7.4, 40 mM KCl, 10 mM MgCl2, 1 mM DTT; 10 nM F-labeled DNA; 21 C
Chain of A3G NPM ins194_195NPM (Q9HC16 whole entry): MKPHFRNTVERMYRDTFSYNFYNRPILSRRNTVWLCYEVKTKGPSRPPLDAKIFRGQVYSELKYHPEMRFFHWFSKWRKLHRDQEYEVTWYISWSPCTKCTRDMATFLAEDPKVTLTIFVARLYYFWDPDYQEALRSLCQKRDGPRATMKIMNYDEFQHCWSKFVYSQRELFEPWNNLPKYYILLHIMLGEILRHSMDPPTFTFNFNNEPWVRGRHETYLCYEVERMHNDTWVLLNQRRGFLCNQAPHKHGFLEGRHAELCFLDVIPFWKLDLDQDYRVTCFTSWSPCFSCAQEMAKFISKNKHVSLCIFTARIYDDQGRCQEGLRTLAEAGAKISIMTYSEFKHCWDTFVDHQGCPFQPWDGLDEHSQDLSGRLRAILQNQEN

Chain of A3G (Homo sapiens?) (Q9HC16 whole entry): as above

## GAATATATGTTGAGACCCAAAGTAATGAGAGATTGATTAGATGAGTGTAATGTGATATATGTGTATGAAAGATATAAGACCCAAAGAGTAAAGTTGTTAATGTGTGTAGATATGTTAA [A3G - 63 (118 nt, CCC)]
A3G
  Kd: 130 nM
A3G NPM ins194_195NPM
  Kd: 56 nM
